Data taken from the supplement of paper PMC9233669.
Variants at the floor of the assay were thinned out.

Tests used:
[1] = test system: biotinyl-Phe-oxazolone; test: self-aminoacylation, catalytic enhancement (BFO) (fold over background); higher = more active; k-Seq, kA / k0A0; sequences stand for … in GGGAAUGGAUCCACAUCUACGAAUUC…UUCACUGCAGACUUGACGAAGCUG
Outline: (§1)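 Mutagenized RNA pools (0.43 μM; 21-nt variable region) were treated with 2–1250 μM of each biotinyl-aminoacyl-oxazolone. Conditions were 50 μL HEPES/NaCl/KCl/MgCl2/CaCl2 buffer, 5% acetonitrile, pH 6.9–7.0, room temperature, 90 minutes. Catalytic enhancement, the median kA relative to the uncatalyzed rate, was derived from streptavidin capture, qPCR and Illumina sequencing.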

[2] = test system: biotinyl-Trp-oxazolone; test: self-aminoacylation, catalytic enhancement (BWO) (fold over background); higher = more active; k-Seq, kA / k0A0; sequences stand for … in GGGAAUGGAUCCACAUCUACGAAUUC…UUCACUGCAGACUUGACGAAGCUG
Outline: as §1

[3] = test system: biotinyl-Val-oxazolone; test: self-aminoacylation, catalytic enhancement (BVO) (fold over background); higher = more active; k-Seq, kA / k0A0; sequences stand for … in GGGAAUGGAUCCACAUCUACGAAUUC…UUCACUGCAGACUUGACGAAGCUG
Outline: as §1

[4] = test system: biotinyl-Leu-oxazolone; test: self-aminoacylation, catalytic enhancement (BLO) (fold over background); higher = more active; k-Seq, kA / k0A0; sequences stand for … in GGGAAUGGAUCCACAUCUACGAAUUC…UUCACUGCAGACUUGACGAAGCUG
Outline: as §1

[5] = test system: biotinyl-Met-oxazolone; test: self-aminoacylation, catalytic enhancement (BMO) (fold over background); higher = more active; k-Seq, kA / k0A0; sequences stand for … in GGGAAUGGAUCCACAUCUACGAAUUC…UUCACUGCAGACUUGACGAAGCUG
Outline: as §1

[6] = test system: biotinyl-Ile-oxazolone; test: self-aminoacylation, catalytic enhancement (BIO) (fold over background); higher = more active; k-Seq, kA / k0A0; sequences stand for … in GGGAAUGGAUCCACAUCUACGAAUUC…UUCACUGCAGACUUGACGAAGCUG
Outline: as §1

| Sequence | self-aminoacylation [1] | self-aminoacylation [2] | self-aminoacylation [3] | self-aminoacylation [4] | self-aminoacylation [5] | self-aminoacylation [6] |
| --- | --- | --- | --- | --- | --- | --- |
| AUGCACCUACGUCAUCGGGUG [Fam2.2 aminoacylation ribozyme variant] | 60.7 | 6.56 | 4.21 | 7.54 | 7.02 | 3.57 |
| AUGCACCUAGCUCAUCGGGUG [Fam2.2 aminoacylation ribozyme variant] | 3.64 | 2.72 | 2.4 | 2.11 | 1.57 | 1.62 |
| AUGCACCUAGGUCAUCCGGUG [Fam2.2 aminoacylation ribozyme variant] | 57.6 | 7.68 | 4.06 | 7.51 | 6.24 | 4.42 |
| AUGCACCUAGGUCAUCGGAUG [Fam2.2 aminoacylation ribozyme variant] | 0.614 | 1.25 | 1.23 | 1.11 | 0.919 | 1.26 |
| AUGCACCUAGGUCAUCGGGGG [Fam2.2 aminoacylation ribozyme variant] | 7.48 | 3.3 | 2.33 | 2.64 | 2.72 | 2.4 |
| AUGCACCUAGGUCAUCGGGUA [Fam2.2 aminoacylation ribozyme variant] | 42 | 9.92 | 5.82 | 12.9 | 10.2 | 6.6 |
| AUGCACCUAGGUCAUCGGGUG [Fam2.2 aminoacylation ribozyme variant] | 30.1 | 6.01 | 4.11 | 6.25 | 5.65 | 4.06 |
| AUGCACCUAGGUCAUCUGGUG [Fam2.2 aminoacylation ribozyme variant] | 10.8 | 2.17 | 1.69 | 2.34 | 1.95 | 1.67 |
| AUGCACCUAGGUCAUGGGGUG [Fam2.2 aminoacylation ribozyme variant] | 31.3 | 5.66 | 3.42 | 4.53 | 4.33 | 3.85 |
| AUGCACCUUGGUCAUCGGGUG [Fam2.2 aminoacylation ribozyme variant] | 65.4 | 8.29 | 5.41 | 9.83 | 7.63 | 5.37 |
| AUGCGCCUAGGUCAUCGGGUG [Fam2.2 aminoacylation ribozyme variant] | 60.9 | 9.8 | 6.24 | 10.7 | 9.32 | 6.21 |
| AUGUUUGCUAAUAAUCGCAAG [Fam3.1 aminoacylation ribozyme variant] | 1.34 | 1.04 | 1.35 | 1.06 | 0.97 | 1.38 |
| AUGUUUGCUAAUACUCGCAAG [Fam3.1 aminoacylation ribozyme variant] | 0.958 | 0.728 | 0.908 | 0.966 | 0.735 | 0.985 |
| AUGUUUGCUAAUAGACGCAAG [Fam3.1 aminoacylation ribozyme variant] | 0.828 | 0.508 | 0.736 | 0.564 | 0.611 | 0.691 |
| AUGUUUGCUAAUAGUAGCAAG [Fam3.1 aminoacylation ribozyme variant] | 1.67 | 0.911 | 1.36 | 0.912 | 1.34 | 1.29 |
| AUGUUUGCUAAUAGUCCCAAG [Fam3.1 aminoacylation ribozyme variant] | 2.79 | 1.25 | 1.11 | 0.966 | 0.965 | 1.08 |
| AUGUUUGCUAAUAGUCGCAAA [Fam3.1 aminoacylation ribozyme variant] | 4.87 | 2.71 | 1.59 | 1.54 | 1.75 | 2.2 |
| AUGUUUGCUAAUAGUCUCAAG [Fam3.1 aminoacylation ribozyme variant] | 5.12 | 1.43 | 1.04 | 1.01 | 1.12 | 1.27 |
| AUUAACCAGGUCAUCGAGUGA [Fam2.1 aminoacylation ribozyme variant] | 22.2 | 6.86 | 2.8 | 5.32 | 5.17 | 3.17 |
| AUUAACCUAGCUCAUCGGGUG [Fam2.2 aminoacylation ribozyme variant] | 8.47 | 1.86 | 1.79 | 1.65 | 1.96 | 1.79 |
| AUUAACCUAGGCCAUCGGGUG [Fam2.2 aminoacylation ribozyme variant] | 15.1 | 3.52 | 2.45 | 4.62 | 3.21 | 2.31 |
| AUUAACCUAGGUCAUCGGGUA [Fam2.2 aminoacylation ribozyme variant] | 262 | 20.3 | 13.9 | 46.4 | 33.2 | 17.7 |
| AUUAACCUAGGUCUUCGGGUG [Fam2.2 aminoacylation ribozyme variant] | 17.9 | 2.95 | 2.73 | 3.58 | 2.98 | 2.64 |
| AUUAACCUCGUCAUCGAGUGA [Fam2.1 aminoacylation ribozyme variant] | 3.89 | 4.68 | 2.25 | 2.82 | 3.27 | 2.33 |
| AUUAACCUGGUCAUCAAGUGA [Fam2.1 aminoacylation ribozyme variant] | 4.41 | 3.18 | 1.85 | 2.94 | 3.1 | 1.76 |
| AUUAACCUGGUCAUCGACUGA [Fam2.1 aminoacylation ribozyme variant] | 0.674 | 0.612 | 0.746 | 0.938 | 0.801 | 0.842 |

| Sequence | self-aminoacylation [1] | self-aminoacylation [2] | self-aminoacylation [3] | self-aminoacylation [4] | self-aminoacylation [5] | self-aminoacylation [6] |
| --- | --- | --- | --- | --- | --- | --- |
| AUUAACCUGGUCAUCGAGUCA [Fam2.1 aminoacylation ribozyme variant] | 0.5 | 0.405 | 0.711 | 0.662 | 0.763 | 0.698 |
| AUUAACCUGGUCAUCGAUUGA [Fam2.1 aminoacylation ribozyme variant] | 0.76 | 1.15 | 0.818 | 0.88 | 0.959 | 0.963 |
| AUUAACCUGGUCAUUGAGUGA [Fam2.1 aminoacylation ribozyme variant] | 53.1 | 12 | 4.05 | 9.89 | 9.39 | 4.38 |
| AUUAACCUGGUCUUCGAGUGA [Fam2.1 aminoacylation ribozyme variant] | 13 | 6.87 | 2.71 | 4.66 | 4.3 | 2.4 |
| AUUAACCUGGUUAUCGAGUGA [Fam2.1 aminoacylation ribozyme variant] | 41.7 | 10.7 | 3.81 | 9.67 | 8.32 | 4.13 |
| AUUAACCUGUUCAUCGAGUGA [Fam2.1 aminoacylation ribozyme variant] | 15.8 | 5.29 | 2.4 | 4.93 | 4.16 | 2.4 |
| AUUAAUCUAGGUCAUCGGGUG [Fam2.2 aminoacylation ribozyme variant] | 15 | 4.05 | 2.72 | 4.65 | 3.43 | 2.73 |
| AUUACACUAGUCAUCGAGUGA [Fam2.1 aminoacylation ribozyme variant] | 16.9 | 6.55 | 2.51 | 5.19 | 4.79 | 3.05 |
| AUUACACUGCUCAUCGAGUGA [Fam2.1 aminoacylation ribozyme variant] | 1.51 | 2.31 | 1.61 | 1.72 | 1.8 | 1.55 |
| AUUACACUGGGCAUCGAGUGA [Fam2.1 aminoacylation ribozyme variant] | 27.1 | 7.85 | 3.44 | 6.5 | 5.92 | 3.53 |
| AUUACACUGGUCAACGAGUGA [Fam2.1 aminoacylation ribozyme variant] | 22.6 | 7.54 | 2.79 | 5.07 | 5.3 | 2.78 |
| AUUACACUGGUCAUCGAAUGA [Fam2.1 aminoacylation ribozyme variant] | 0.652 | 1.15 | 1.25 | 0.978 | 0.931 | 1.12 |
| AUUACACUGGUCUUCGAGUGA [Fam2.1 aminoacylation ribozyme variant] | 18.8 | 6.04 | 2.87 | 4.42 | 3.75 | 2.75 |
| AUUACACUGGUGAUCGAGUGA [Fam2.1 aminoacylation ribozyme variant] | 20.9 | 5.92 | 2.42 | 4.21 | 4.88 | 2.33 |
| AUUACACUGUUCAUCGAGUGA [Fam2.1 aminoacylation ribozyme variant] | 3.06 | 4.78 | 2.17 | 2.97 | 3.76 | 2.01 |
| AUUACCAUGAUCAUCGAGUGA [Fam2.1 aminoacylation ribozyme variant] | 56.1 | 14.6 | 5.53 | 11.6 | 11.1 | 5.54 |
| AUUACCAUGGACAUCGAGUGA [Fam2.1 aminoacylation ribozyme variant] | 24.1 | 8.17 | 3.14 | 6.81 | 6.51 | 2.91 |
| AUUACCAUGGCCAUCGAGUGA [Fam2.1 aminoacylation ribozyme variant] | 2.77 | 3.98 | 2.27 | 3.1 | 2.67 | 1.83 |
| AUUACCAUGGUAAUCGAGUGA [Fam2.1 aminoacylation ribozyme variant] | 50.3 | 10.7 | 3.89 | 8.44 | 8.72 | 3.78 |
| AUUACCAUGGUCAACGAGUGA [Fam2.1 aminoacylation ribozyme variant] | 32.6 | 10 | 4.12 | 7.89 | 7.33 | 4.28 |
| AUUACCAUGGUCAUCGAGUGU [Fam2.1 aminoacylation ribozyme variant] | 4.69 | 6.03 | 2.78 | 4.6 | 4.53 | 2.55 |
| AUUACCAUGUUCAUCGAGUGA [Fam2.1 aminoacylation ribozyme variant] | 36.4 | 9.17 | 3.79 | 7.2 | 7.52 | 4.04 |
| AUUACCCACGUCAUCGAGUGA [Fam2.1 aminoacylation ribozyme variant] | 15.6 | 4.53 | 2.9 | 4.38 | 4.44 | 2.46 |
| AUUACCCAGGACAUCGAGUGA [Fam2.1 aminoacylation ribozyme variant] | 56.4 | 8.66 | 3.9 | 7.26 | 8.33 | 3.56 |
| AUUACCCAGGGCAUCGAGUGA [Fam2.1 aminoacylation ribozyme variant] | 21.4 | 6.92 | 3.57 | 6.33 | 6.06 | 3.27 |
